Results on 5 molecules are retold here after US20260152552A1 (CURON BIOPHARMACEUTICAL SHANGHAI, published 2026).

As a reminder, the EC50 is the midpoint of the concentration-response curve.

B1: mouse anti-L1CAM monoclonal antibody 103E9B3 (antibody, V domains shown)
VH: EVQLQQSGPELLKPGASVKISCKASGYTFTSYTMHWVKQSHGKSLEWIGDINPNYGGTSYNEKFKDKATLTVDKSSSTAYMELRSLTSEDSAVYYCAREGATGTWYFDVWGTGTTVTVSS
VL: QIVLTQSPALMSASPGEKVTMTCSASSSVSFMFWYQQKPRSSPKPWIYLTSNLASGVPARFSGSGSGTSYSLTISSMEAEDAATYYCQQWRSNPPTFGAGTKLELK
notes: Mouse IgG tested as hybridoma supernatant
B2: mouse anti-L1CAM monoclonal antibody 49E10H1 (antibody, V domains shown)
VH: DVQLQESGPGLVKPSQSLSLTCTVTGYSITSDYAWNWIRQFPGNRLEWMGYITYSGTTTYNPSLKSRISITRDTSKNQFFLQLNSVTTADTATYYCTLDHYGNYAYFDYWGQGTTLTVSS
VL: QIVLSQSPAILSASPGEKVTMTCRASSSVSFMHWYQQKPRSSPKPWIYASSNLVSGVPTRFSGSGSGTSYSLTISRVEAEDAATYYCQQWSSNPSTFGAGTKLELK
notes: as for B1
B3: mouse anti-L1CAM monoclonal antibody 25F8H8 (antibody, V domains shown)
VH: QVQLQQSGAELAKPGASVKMSCQASGYTFTTYWMHWVKQRPGQGLEWIGYINPSTGYTDYNQKFKDKATLTADKSSSTAYMQLSSLTSEDSAVYYCARRQLGLPLFDYWGQGTTLTVSS
VL: DIVMTQSHKFLSTSVGDRVSITCKASQDVGTAVAWYQHKPGQSPKLLIFWASTRHTGVPDRFTGSGSGTDFTLTISNVQSEDLADYFCQQYSNYPLTFGAGPKLELK
notes: as for B1
B4: mouse anti-L1CAM monoclonal antibody 46F1D5 (antibody, V domains shown)
VH: QVQVQQSGAELAKPGASMKMSCKASGYTFTRYWMQWVKQRPGQGLEWIGYINPSTGYTDYNQNFKDKATLTADKSSSTAYMQLSSLTSEDSAVYYCARRHLGLPLFDYWGQGTTLTVSS
VL: DIVMTQSHKFMSTSLGDRVSITCKASQDVGTAVAWYQQKPGQSPKLLIYWASTRHTGVPDRFTGSGSGTDFTLTISNVQSEDLAEYFCQQYSNYPLTFGAGTKLDLK
notes: as for B1
B5: mouse anti-L1CAM monoclonal antibody 26A12C1 (antibody, V domains shown)
VH: QVQLQQSGAELAKPGASVKMSCKASGYTFTNYWMQWVKQRPGQGLEWIGYINPSTYYSDYNQKFKDKATLTADKSSSTAFMQLSSLTSEDSAVYYCARRQFGLPLFDYWGQGTTLTLSS
VL: DIVMTQSHKFMSTSVGDRVSITCKASQDVGTAVAWYQQKPGQSPKLLIYWASTRHTGVPDRFTGSGSGTDFTLTISNVQSEDLTDYFCQQYSNYPLTFGAGTELELK
notes: as for B1

This experiment deals with T1, human L1CAM (L1 cell adhesion molecule), endogenously expressed on the surface of HeLa cells (human, UniProt P32004 20-1257).
T1 construct: whole, on cells; also called CD171
T1 sequence (P32004 20-1257): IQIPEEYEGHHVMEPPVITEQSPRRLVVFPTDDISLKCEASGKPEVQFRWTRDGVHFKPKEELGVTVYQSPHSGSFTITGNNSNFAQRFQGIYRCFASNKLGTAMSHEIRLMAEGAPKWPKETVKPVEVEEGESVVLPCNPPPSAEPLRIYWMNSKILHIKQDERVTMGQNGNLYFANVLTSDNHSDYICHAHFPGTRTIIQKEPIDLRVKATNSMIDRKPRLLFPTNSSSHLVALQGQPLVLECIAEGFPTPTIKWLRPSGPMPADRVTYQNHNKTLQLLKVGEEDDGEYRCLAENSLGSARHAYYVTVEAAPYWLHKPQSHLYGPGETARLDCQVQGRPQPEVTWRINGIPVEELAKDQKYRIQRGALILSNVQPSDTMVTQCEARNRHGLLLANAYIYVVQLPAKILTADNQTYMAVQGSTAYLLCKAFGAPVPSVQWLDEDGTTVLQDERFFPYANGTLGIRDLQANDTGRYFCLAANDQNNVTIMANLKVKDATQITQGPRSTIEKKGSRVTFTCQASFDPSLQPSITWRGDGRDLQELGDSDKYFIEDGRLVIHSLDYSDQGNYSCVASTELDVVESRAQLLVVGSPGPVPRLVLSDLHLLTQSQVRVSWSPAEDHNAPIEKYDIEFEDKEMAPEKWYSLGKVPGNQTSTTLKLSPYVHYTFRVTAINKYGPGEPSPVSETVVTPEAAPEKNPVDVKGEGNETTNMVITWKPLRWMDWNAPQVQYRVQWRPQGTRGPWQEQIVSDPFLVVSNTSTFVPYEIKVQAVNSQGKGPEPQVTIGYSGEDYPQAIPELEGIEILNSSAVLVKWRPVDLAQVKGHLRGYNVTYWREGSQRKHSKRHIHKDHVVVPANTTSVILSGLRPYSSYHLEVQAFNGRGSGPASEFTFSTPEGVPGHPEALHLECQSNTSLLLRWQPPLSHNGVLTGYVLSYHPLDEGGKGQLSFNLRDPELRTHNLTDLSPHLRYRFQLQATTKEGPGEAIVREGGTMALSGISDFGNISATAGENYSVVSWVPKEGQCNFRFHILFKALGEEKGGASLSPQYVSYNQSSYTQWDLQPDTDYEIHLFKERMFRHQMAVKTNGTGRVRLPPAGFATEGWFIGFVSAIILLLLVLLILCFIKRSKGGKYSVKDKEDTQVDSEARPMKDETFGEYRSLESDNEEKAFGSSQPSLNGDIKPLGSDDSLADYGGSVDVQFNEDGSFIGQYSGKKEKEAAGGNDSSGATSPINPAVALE
Description: flow cytometry on HeLa cells (endogenous human L1CAM), hybridoma supernatant. How it is done:
HeLa cells used in this example were used to measure the binding of mouse anti-L1CAM monoclonal antibodies to endogenously expressed human L1CAM on the cell surface. HeLa cells were cultured in DMEM complete medium (purchased from Corning) containing 10% FBS (purchased from Gibco) and 100 U/mL penicillin-streptomycin mixture (Thermofisher, 15140122). When the coverage of the cells in the culture container reached to 80-90%, using TrypLE (purchased from Thermofisher) to digest Hela cells from the culture container, and seed them in a 96-well plate (purchased from AXYGEN) at a density of 4×10⁶ cells/ml, with 100,000 cells per well (25 μL DMEM complete culture medium), then add 25 μL of diluted hybridoma supernatant containing antibodies to each well, mix gently, and incubate the 96-well plate at 4° C. for 1 hour. Then add 150 μL of PBS buffer containing 2% FBS (purchased from Corning) to each well, centrifuge at 1400 rpm for 4 minutes, remove the supernatant, and repeat washing once. Then, 50 μL of 1:800 diluted Alexa Flour 647-labeled goat anti-mouse fluorescent secondary antibody (purchased from Jacksonimmuno) was added to each well, and the 96-well plate was incubated at 4° C. for 0.5 hours. The cells were washed twice with PBS solution containing 2% FBS, and then resuspended in 120 μL of PBS. The fluorescence signal on the cell surface was detected using a flow cytometer (BD FACSCelesta) to obtain the median fluorescence intensity (MFI). The antibody-containing hybridoma supernatant was assayed using an anti-mouse ELISA assay to determine the concentration of mouse IgG in the supernatant. Finally, a dose-response curve was generated, and the half effective concentration (EC50) was calculated by nonlinear regression using GraphPad software.
As to B1, the concentration for a half-maximal effect (EC50) amounted to 0.436 nM.
Turning to B2, the half-maximal effective concentration (EC50) came to 0.233 nM.
Take B3: the EC50 came to 0.193 nM.
Consider B4, for which a half-maximal response (EC50) required 0.144 nM. The EC50 values of the last two molecules are within 1.5-fold of each other.
On to B5, for which the EC50 came to 0.241 nM.
